Ten molecules from US20200299407 (published 2020) can be followed below.

For test [1], the target named is human transferrin receptor (human, UniProt P02786). The experiment in a line: SPR. Background: In SPR one partner is held on a chip, and binding of the other changes the refractive index at the surface.
Test [2] has as its target Her2 ECD (Trastuzumab KO)-Fc knob (human). The experiment in a line: SPR, 25C.
Test [3] concerns the target Her2 ECD (Pertuzumab KO)-Fc knob (human). The experiment in a line: SPR, 25C.
In test [4] the target is HER2 ECD (aa 1-629 mature) (human). The experiment in a line: SPR.
The target in test [5] is Her2 ECD (Trastuzumab KO)-Fc knob (human). The experiment in a line: SPR.
In test [6] the target is Her2 ECD (Pertuzumab KO)-Fc knob (human). Description: SPR.

Sequence of human transferrin receptor (P02786 89-760): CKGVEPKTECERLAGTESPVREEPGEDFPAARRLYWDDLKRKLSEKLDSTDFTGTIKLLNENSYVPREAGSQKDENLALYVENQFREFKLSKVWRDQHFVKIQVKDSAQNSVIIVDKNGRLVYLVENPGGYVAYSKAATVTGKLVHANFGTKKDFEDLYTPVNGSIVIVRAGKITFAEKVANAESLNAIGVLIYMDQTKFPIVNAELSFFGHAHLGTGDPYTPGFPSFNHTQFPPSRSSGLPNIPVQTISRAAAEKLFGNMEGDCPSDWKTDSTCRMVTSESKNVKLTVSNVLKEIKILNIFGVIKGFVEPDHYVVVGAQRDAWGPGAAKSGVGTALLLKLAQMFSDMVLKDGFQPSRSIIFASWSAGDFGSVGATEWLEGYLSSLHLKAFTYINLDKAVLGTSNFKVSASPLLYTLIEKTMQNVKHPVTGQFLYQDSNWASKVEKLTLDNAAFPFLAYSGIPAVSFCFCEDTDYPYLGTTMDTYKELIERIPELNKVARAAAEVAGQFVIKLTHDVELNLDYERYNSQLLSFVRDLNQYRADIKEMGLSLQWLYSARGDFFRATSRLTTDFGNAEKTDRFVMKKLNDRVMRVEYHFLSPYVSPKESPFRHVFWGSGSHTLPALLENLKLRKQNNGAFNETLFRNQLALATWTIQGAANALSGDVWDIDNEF

B1: VH23-DANG/VL0(rb) (antibody, V domains shown)
VH: QSMQESGPGLVKPSQTLSLTCTVSGFSLSSYAMSWIRQHPGKGLEWIGYIWSGGSTDYASWAKSRVTISKTSTTVSLKLSSVTAADTAVYYCARRYGTSYPDYGDANGFDPWGQGTLVTVSS
VL: AYDMTQTPASVEVAVGGTVTIKCQASQSISSYLSWYQQKPGQRPKLLIYRASTLASGVSSRFKGSGSGTQFTLTISGVECADAATYYCQQCYSSSNVDNTFGGGTEVVVKR
As for B1, the koff (commonly the rate constant with which the complex falls apart) in test [1] worked out at 0.000338 s⁻¹.

B2: Herceptarg CrossMab Pertuzumab arm (antibody)
chain 1: not shown
chain 2: DIQMTQSPSSLSASVGDRVTITCKASQDVSIGVAWYQQKPGKAPKLLIYSASYRYTGVPSRFSGSGSGTDFTLTISSLQPEDFATYYCQQYYIYPYTFGQGTKVEIKSSASTKGPSVFPLAPSSKSTSGGTAALGCLVKDYFPEPVTVSWNSGALTSGVHTFPAVLQSSGLYSLSSVVTVPSSSLGTQTYICNVNHKPSNTKVDKKVEPKSC
Consider B2, for which, in test [2], the Kd (as a rule, the concentration at which binding is half-saturated) worked out at 0.84 nM. In other words, the sub-nanomolar range.

B3: Herceptarg CrossMab Trastuzumab arm (antibody, V domains shown)
VH: QVQLVQSGAEVKKPGASVKVSCKASGFNIKDTYIHWVRQAPGQGLEWMGRIYPTNGYTRYAQKFQGRVTMTRDTSISTAYMELSRLRSDDTAVYYCSRWGGEGFYAMDYWGQGTMVTVSS
VL: DIQLTQPPSVSVAPGQTARITCGASQDVSTAVAWYQQKPGQAPVLVVYSASFLYSGIPSRFSGSRSGTDFTLTISRVEAGDEADYYCQQHYTTPPTFGTGTKVTVLR
In test [3], B3 had a Kd of 0.8 nM.

B4: Pertuzumab (antibody)
chain 1: EVQLVESGGGLVQPGGSLRLSCAASGFTFTDYTMDWVRQAPGKGLEWVADVNPNSGGSIYNQRFKGRFTLSVDRSKNTLYLQMNSLRAEDTAVYYCARNLGPSFYFDYWGQGTLVTVSS
chain 2: DIQMTQSPSSLSASVGDRVTITCKASQDVSIGVAWYQQKPGKAPKLLIYSASYRYTGVPSRFSGSGSGTDFTLTISSLQPEDFATYYCQQYYIYPYTFGQGTKVEIK
B4: the results for the Kd in test [4] and in test [5] were 0.147 nM and 0.62 nM, respectively. The binding result in test [6] is given as “no binding”.

B5: Herceptarg D1-derived Pertuzumab arm (antibody, V domains shown)
VH: EVQLVESGGGLVQPGGSLRLSCAASGFTFNDYTMDWVRQAPGKGLEWVADVNPNSGGSIVNRRFKGRFTLSVDRSKNTLYLQMNSLRAEDTAVYYCARNLGPFFYFDYWGQGTLVTVSS
VL: DIQMTQSPSSLSASVGDRVTITCKASQDVSTAVAWYQQKPGKAPKLLIYSASFRYTGVPSRFSGSRSGTDFTLTISSLQPEDFATYYCQQHYTTPPTFGQGTKVEIK
Molecule B5 returned a Kd in test [2] of 0.16 nM.

B6: Herceptarg G2 Pertuzumab arm (antibody, V domains shown)
VH: EVQLVESGGGLVQPGGSLRLSCAASGFTFTDYTMDWVRQAPGKGLEWVADVNPNSGGYIVNRRFKGRFTLSVDRSKNTLYLQMNSLRAEDTAVYYCARNLGPSFYFDYWGQGTLVTVSS
VL: DIQMTQSPSSLSASVGDRVTITCKASQDVSTAVAWYQQKPGKAPKLLIYSASFRYTGVPSRFSGSRSGTDFTLTISSLQPEDFATYYCQQHYTTPPTFGQGTKVEIK
With B6, the Kd in test [2] worked out at 9.65 nM.

B7: Herceptarg E1 Pertuzumab arm (antibody, V domains shown)
VH: EVQLVESGGGLVQPGGSLRLSCAASGFTFADYTMDWVRQAPGKGLEWVADVNPNSGGSIYNQRFKGRFTLSVDRSKNTLYLQMNSLRAEDTAVYYCARNLGPWFYFDYWGQGTLVTVSS
VL: DIQMTQSPSSLSASVGDRVTITCKASQDVSTAVAWYQQKPGKAPKLLIYSASFRYTGVPSRFSGSRSGTDFTLTISSLQPEDFATYYCQQHYTTPPTFGQGTKVEIK
Molecule B7 came in with a Kd in test [2] of 1.32 nM. Compared with the last molecule, the Kd is about 7.3-fold lower.

B8: Herceptarg G2 Trastuzumab arm (antibody, V domains shown)
VH: not shown
VL: DIQMTQSPSSLSASVGDRVTITCKASQDVSTAVAWYQQKPGKAPKLLIYSASFRYTGVPSRFSGSRSGTDFTLTISSLQPEDFATYYCQQHYTTPPTFGQGTKVEIK
Take B8: binding in test [3] was put at a Kd of 1.82 nM.

B9: Herceptarg CLC Trastuzumab arm (E1) (antibody, V domains shown)
VH: not shown
VL: DIQMTQSPSSLSASVGDRVTITCKASQDVSTAVAWYQQKPGKAPKLLIYSASFRYTGVPSRFSGSRSGTDFTLTISSLQPEDFATYYCQQHYTTPPTFGQGTKVEIK
In test [3], B9 gave a Kd of 0.72 nM.

B10: Herceptarg D1-derived Trastuzumab arm (antibody, V domains shown)
VH: not shown
VL: DIQMTQSPSSLSASVGDRVTITCKASQDVSTAVAWYQQKPGKAPKLLIYSASFRYTGVPSRFSGSRSGTDFTLTISSLQPEDFATYYCQQHYTTPPTFGQGTKVEIK
For B10, the Kd in test [3] is 0.6 nM.
